In experiment [1] the target is T1, Mouse Nectin-4 on CHO cells (mouse, UniProt Q8R007 32-508).
T1 construct: also called mouse Nectin 4 protein
T1 sequence: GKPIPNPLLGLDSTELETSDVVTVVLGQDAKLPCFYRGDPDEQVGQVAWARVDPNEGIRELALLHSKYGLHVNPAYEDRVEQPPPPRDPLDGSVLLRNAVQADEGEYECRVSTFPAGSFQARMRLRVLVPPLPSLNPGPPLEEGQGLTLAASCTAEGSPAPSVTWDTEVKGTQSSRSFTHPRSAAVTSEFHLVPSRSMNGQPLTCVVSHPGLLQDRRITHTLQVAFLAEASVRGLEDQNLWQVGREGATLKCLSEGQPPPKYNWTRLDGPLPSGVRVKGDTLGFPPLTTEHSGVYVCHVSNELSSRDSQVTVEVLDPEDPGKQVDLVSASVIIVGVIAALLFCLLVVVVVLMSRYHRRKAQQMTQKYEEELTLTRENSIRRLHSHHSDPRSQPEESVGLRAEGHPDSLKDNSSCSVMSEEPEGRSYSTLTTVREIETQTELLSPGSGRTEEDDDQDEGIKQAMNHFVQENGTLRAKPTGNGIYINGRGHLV
The experiment is described as follows: flow cytometry on CHO cells expressing mouse Nectin-4.

The target in the next experiment is T2, human Nectin-4 Mutant 7 (human, UniProt Q96NY8 32-510).
T2 construct: Expressed on transfected HEK-293T cells; also called S195A/K197T/S199A
T2 chain: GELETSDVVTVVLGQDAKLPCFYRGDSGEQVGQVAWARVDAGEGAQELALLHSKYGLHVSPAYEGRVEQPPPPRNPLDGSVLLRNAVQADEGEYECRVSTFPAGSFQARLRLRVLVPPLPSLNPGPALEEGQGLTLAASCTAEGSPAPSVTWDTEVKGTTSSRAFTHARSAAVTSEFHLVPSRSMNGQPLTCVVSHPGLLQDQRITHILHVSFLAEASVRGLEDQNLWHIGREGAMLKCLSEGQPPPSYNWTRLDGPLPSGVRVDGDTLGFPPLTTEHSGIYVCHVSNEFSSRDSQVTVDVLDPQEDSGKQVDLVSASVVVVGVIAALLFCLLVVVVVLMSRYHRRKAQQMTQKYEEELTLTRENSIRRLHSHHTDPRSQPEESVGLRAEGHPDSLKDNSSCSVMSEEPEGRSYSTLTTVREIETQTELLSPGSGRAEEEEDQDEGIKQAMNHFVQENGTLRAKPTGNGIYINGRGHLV
The experiment is described as follows: binding to HEK-293T cells transfected with the Nectin-4 mutant.

Experiment [2] deals with T3, human Nectin-4 Mutant 7bis (human, UniProt Q96NY8 32-510).
T3 construct: Expressed on transfected HEK-293T cells; also called A72P/G73N/K197T/S199A
T3 chain: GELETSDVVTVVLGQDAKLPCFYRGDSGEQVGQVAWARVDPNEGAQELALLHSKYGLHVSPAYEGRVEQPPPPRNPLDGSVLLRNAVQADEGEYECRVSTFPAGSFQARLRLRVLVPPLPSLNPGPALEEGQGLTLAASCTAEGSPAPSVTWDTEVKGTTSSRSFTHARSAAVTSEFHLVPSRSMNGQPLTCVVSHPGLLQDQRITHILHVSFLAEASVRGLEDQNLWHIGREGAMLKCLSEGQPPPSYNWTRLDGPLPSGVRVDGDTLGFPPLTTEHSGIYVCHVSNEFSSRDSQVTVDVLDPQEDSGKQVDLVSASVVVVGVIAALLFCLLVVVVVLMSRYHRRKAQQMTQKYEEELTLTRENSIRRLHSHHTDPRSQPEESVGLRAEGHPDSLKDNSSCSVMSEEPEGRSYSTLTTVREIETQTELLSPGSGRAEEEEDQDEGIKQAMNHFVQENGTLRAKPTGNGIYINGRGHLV
The description is as above.

The target in experiment [3] is T4, huNectin4-C1C2-V5 (C1C2 construct, lacking the Ig-like V domain) (human, UniProt Q96NY8 148-510).
T4 construct: Expressed on CHO cells; also called Hu-Nectin4 IgC1C2-V5; Nectin4-C1C2-V5 sorted cells
T4 sequence: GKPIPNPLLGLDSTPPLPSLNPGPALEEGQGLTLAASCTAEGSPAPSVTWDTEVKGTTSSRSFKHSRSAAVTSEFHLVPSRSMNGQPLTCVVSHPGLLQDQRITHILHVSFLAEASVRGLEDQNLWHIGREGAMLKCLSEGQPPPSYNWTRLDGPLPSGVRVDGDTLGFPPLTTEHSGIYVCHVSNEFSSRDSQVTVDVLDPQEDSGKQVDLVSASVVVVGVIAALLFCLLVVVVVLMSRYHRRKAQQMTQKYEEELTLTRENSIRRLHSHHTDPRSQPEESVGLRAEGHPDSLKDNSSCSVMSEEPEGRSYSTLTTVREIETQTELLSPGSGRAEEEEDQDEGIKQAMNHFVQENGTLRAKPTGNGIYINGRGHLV
The experiment is described as follows: flow cytometry titration on Hu-Nectin4 IgC1C2-V5 sorted cells (row label printed IC50).

Experiment [4] addresses T5, monomeric huNectin4-his-BirA protein (human, UniProt Q96NY8 32-349).
T5 construct: also called Human Nectin4-His-BirA; huNectin4-BirA
T5 sequence: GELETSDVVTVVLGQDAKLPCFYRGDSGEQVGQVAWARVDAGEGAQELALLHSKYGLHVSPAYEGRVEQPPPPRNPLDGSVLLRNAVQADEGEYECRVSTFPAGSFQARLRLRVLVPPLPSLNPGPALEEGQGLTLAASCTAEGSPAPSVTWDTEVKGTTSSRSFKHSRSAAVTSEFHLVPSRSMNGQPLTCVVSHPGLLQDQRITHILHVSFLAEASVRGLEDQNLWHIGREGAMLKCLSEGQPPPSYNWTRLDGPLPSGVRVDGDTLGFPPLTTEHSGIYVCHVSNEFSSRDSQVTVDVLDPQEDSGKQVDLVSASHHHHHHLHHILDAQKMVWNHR
The experiment in a line: SPR (Biacore T200), antibody captured on Protein A, monomeric huNectin4-his-BirA injected. The procedure: Antibodies were tested for binding affinity to the wild-type human Nectin-4 protein by SPR (Surface Plasmon Resonance) methods. Measurements were performed on a Biacore T200 apparatus (Biacore GE Healthcare) at 25° C. Sensorgrams were analyzed with Biacore T100 Evaluation software. A CMR Sensor Chip with immobilized Protein A at about 600 RU was used. Anti-Nectin-4 antibodies were captured onto the Protein-A chip (antibodies diluted to 1 μg/ml in HBS-EP+1× buffer and injected over 120s at 40 μL/min). […] The chip was regenerated with NaOh 10 mM 2× for 30s at 40 μl/min. The sensorgram sets were fitted using the 1:1 kinetic binding model or two state reaction model, as a function of the profile of the curves.

Experiment [5] has as its target T6, wild-type human Nectin-4 on the CHO huNectin4 Cl.3C8 cell line (human, UniProt Q96NY8 32-510).
T6 construct: also called whole Nectin-4 protein; huNectin4 CI.3C8
T6 sequence: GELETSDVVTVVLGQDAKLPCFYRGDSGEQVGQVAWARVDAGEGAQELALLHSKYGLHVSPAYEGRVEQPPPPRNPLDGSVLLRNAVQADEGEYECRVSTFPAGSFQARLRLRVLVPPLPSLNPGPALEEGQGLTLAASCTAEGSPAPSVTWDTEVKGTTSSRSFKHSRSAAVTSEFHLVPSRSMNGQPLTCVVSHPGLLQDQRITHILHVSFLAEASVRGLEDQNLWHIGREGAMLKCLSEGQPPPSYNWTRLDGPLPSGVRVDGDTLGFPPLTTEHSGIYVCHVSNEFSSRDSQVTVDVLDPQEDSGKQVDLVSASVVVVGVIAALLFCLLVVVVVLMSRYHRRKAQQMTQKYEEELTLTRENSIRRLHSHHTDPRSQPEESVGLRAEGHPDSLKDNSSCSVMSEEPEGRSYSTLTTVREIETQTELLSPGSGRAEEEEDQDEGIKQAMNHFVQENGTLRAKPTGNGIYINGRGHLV
The experiment in a line: flow cytometry titration on CHO cells expressing wild-type human Nectin-4 (huNectin4), median MFI. The procedure: The characterization of the binding of the antibodies on Nectin-4 domains was performed by flow cytometry using cells made to express the wild-type human Nectin-4 protein and cells made to express a modified Nectin-4 having the Ig-like C₂ type 1 and the Ig-like C₂ type 2 domains and lacking the Ig-like V domain (the C1C2 construct). The latter protein additionally bears a V5 tag for flow cytometry cell sorting, and cells were used as Nectin4-C1C2-V5 sorted cells.

Experiment [6] has as its target T7, Rat Nectin-4 on CHO cells (rat, UniProt Q8R007 31-508 (mouse entry)).
T7 chain: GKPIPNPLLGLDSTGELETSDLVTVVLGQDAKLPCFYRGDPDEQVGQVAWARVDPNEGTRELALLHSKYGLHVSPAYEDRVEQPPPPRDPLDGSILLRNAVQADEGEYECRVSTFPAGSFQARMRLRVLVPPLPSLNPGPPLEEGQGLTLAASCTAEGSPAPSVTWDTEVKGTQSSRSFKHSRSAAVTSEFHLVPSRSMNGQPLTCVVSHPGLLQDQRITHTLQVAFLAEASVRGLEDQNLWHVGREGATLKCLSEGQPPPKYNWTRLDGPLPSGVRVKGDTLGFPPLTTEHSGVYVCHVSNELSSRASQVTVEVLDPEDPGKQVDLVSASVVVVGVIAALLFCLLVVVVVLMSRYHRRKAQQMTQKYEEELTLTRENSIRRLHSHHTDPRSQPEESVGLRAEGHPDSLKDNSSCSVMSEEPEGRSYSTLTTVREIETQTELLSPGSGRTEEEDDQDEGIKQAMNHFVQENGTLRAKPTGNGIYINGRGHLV
The experiment in a line: flow cytometry titration on CHO cells expressing rat Nectin-4, median MFI (PE).

B1: antibody 5E7 (antibody, human IgG1, V domains shown)
VH: QVQLQQPGAELVKPGASVKLSCKASGYIFTSYWMHWVKQRPGQGLEWIGEIDPSDSYTNYNQKFKGKATLTLDKSSSTTYMQLSSLTSEDSAVYYCVRGYGNYGDYWGQGTTLTVSS
VL: DVVMTQAAFSNPVTLGTSASISCRSSKSLLHSNGITYLYWYLQKPGQSPQLLIYQMSNLASGVPDRFSSSGSGTDFTLRISRVEAEDVGVYYCAQNLELPWTFGGGTKLEIK
notes: Mouse variable domains; also called mAb6; Mab6
As for B1, the binding result (in experiment [1]; with human Nectin-4 Mutant 7; in experiment [2]) was “no binding” in each case. In experiment [3], this molecule gave a concentration giving a half-maximal response (EC50) of 0.0524 µg/mL. In addition, in experiment [4], the dissociation constant (Kd) amounted to 4.8 nM. In experiment [4], this molecule showed a koff of 0.003 s⁻¹. Further, the kon in experiment [4] came to 620000 M⁻¹ s⁻¹. In addition, the “EC50 (read off the curve)” value in experiment [5] is ~0.05 µg/mL.

B2: antibody 10B12 (antibody, human IgG1, V domains shown)
VH: QVQLQQPGAELVKPGASVKLSCKASGYTFTSYWMHWVKQRPGQGLEWIGEIDPSDSYTNYNQKFKGKATLTVDKSSSTAYMQLSSLTSEDSAVYYCVRGYGNYGDYWGQGTTLTVSS
VL: DIVMTQAAFSNPVTLGTSASISCRSSKSLLHSNGITYLYWYLQKPGQSPQLLIYQMSNLASGVPDRFSSSGSGTDFTLRISRVEAEDVGVYYCAQNLELPWTFGGGTKLEIK
notes: Mouse variable domains; also called mAb7; Mab7
B2: the binding result in experiment [1] was “no binding”. Also, in the experiment with human Nectin-4 Mutant 7, the binding result is on record as “no binding”. For the same molecule, the binding result in experiment [2] is given as “no binding”. In experiment [3], this molecule registered an EC50 of 0.0197 µg/mL. Also, in experiment [4], the dissociation constant (Kd) was 12 nM, the off-rate (koff) was 0.01 s⁻¹ and the kon amounted to 860000 M⁻¹ s⁻¹. Also, the “EC50 (read off the curve)” value in experiment [5] is ~0.02 µg/mL.

B3: Enfortumab (ASG-22ME) (antibody, V domains shown)
VH: EVQLVESGGGLVQPGGSLRLSCAASGFTFSSYNMNWVRQAPGKGLEWVSYISSSSSTIYYADSVKGRFTISRDNAKNSLSLQMNSLRDEDTAVYYCARAYYYGMDVWGQGTTVTVSS
VL: DIQMTQSPSSVSASVGDRVTITCRASQGISGWLAWYQQKPGKAPKFLIYAASTLQSGVPSRFSGSGSGTDFTLTISSLQPEDFATYYCQQANSFPPTFGGGTKVEIKR
Take B3: in experiment [6], the “EC50 (read off the curve)” value is ~0.2 µg/mL.

B4: mAb3 (antibody, V domains shown)
VH: EVQLVESGGGLVQPGGSLRLSCAASGFTFSSYNMNWVRQAPGKGLEWVSYISSSSSTIYYADSVKGRFTISRDNAKNSLSLQMNSLRDEDTAVYYCARAYYYGMDVWGQGTTVTVSS
VL: DIQMTQSPSSVSASVGDRVTITCRASQGISGWLAWYQQKPGKAPKFLIYAASTLQSGVPSRFSGSGSGTDFTLTISSLQPEDFATYYCQQANSFPPTFGGGTKVEIKR
Turning to B4, in experiment [3], the concentration giving a half-maximal response (EC50) was 0.156 µg/mL. In experiment [5], the half-maximal effective concentration (EC50 (read off the curve)) was ~0.2 µg/mL.

(Values after patent publication US20240325557A1 (INNATE PHARMA, published 2024).)
